Data reported in patent US20210252057A1 (published 2021).

Assays:
[1] = target: T1, Merkel cell polyomavirus (MCPyV) T antigen (Large-T antigen) peptide on HLA-A*02:01 (human); experiment: killing
T1 peptide: KLLEIAPNC

[2] = target: T2, peptide on HLA-A*02:01 (human); experiment: cytokine release
T2 peptide: ALLEIAPNC

[3] = target: T3, MCPyV T antigen homolog (C9A of …) peptide on HLA-A*02:01 (human); experiment: cytokine release
T3 peptide: KLLEIAPNA

[4] = target: T1, Merkel cell polyomavirus (MCPyV) T …; experiment: multimer staining
[5] = target: T4, peptide on HLA-A*02:01 (human); experiment: cytokine release
T4 peptide: KALEIAPNC

[6] = target: T5, MCPyV Large-T sequence variant peptide on HLA-A*02:01 (human); experiment: cytokine release
T5 peptide: KLLEITPNC

[7] = target: T6, MCPyV Large-T sequence variant peptide on HLA-A*02:01 (human); experiment: cytokine release
T6 peptide: KLLEISPNC

[8] = target: T7, peptide on HLA-A*02:01 (human); experiment: cytokine release
T7 peptide: KLLEIAANC

Measured: binding result

B1: TCR1072 (TCR, V domains shown)
Valpha: RKEVEQDPGPFNVPEGATVAFNCTYSNSASQSFFWYRQDCRKEPKLLMSVYSSGNEDGRFTAQLNRASQYISLLIRDSKLSDSATYLCVVTGTGGFKTIFGAGTRLFVKA
Vbeta: GEEVAQTPKHLVRGEGQKAKLYCAPIKGHSYVFWYQQVLKNEFKFLISFQNENVFDETGMPKERFSAKCLPNSPCSLEIQATKLEDSAVYFCASSSMSIAAGNTGELFFGEGSRLTVL
recognises: [1] | [2] | [3]

B2: TCR1007 (TCR, V domains shown)
Valpha: QQQVKQSPQSLIVQKGGISIINCAYENTAFDYFPWYQQFPGKGPALLIAIRPDVSEKKEGRFTISFNKSAKQFSLHIMDSQPGDSATYFCAVPNTGNQFYFGTGTSLTVIP
Vbeta: GAGVSQSPRYKVAKRGQDVALRCDPISGHVSLFWYQQALGQGPEFLTYFQNEAQLDKSGLPSDRFFAERPEGSVSTLKIQRTQQEDSAVYLCASSLIAGLSYEQYFGPGTRLTVT
not listed: [1] | [2]
recognises: all other assays above
